For one substance, Kd results are on record in patent CN115969997A.

For this assay, the target named is CLDN18.2 (亲和力检测, Table 2 ka/kd/KD). Put plainly: affinity measurement, method not described.

pKd: −log10 of the molar value.

The term pKd denotes −log10 of the Kd, conventionally taken in molar units. IMAB362 (antibody): the negative logarithm of the Kd (pKd) is 8.54.
